Here are results for 1 substance from PMC2856916.

Data set [1] relates to histone octamer unacetylated H3 (smFRET). The data set is described as follows: single-molecule FRET. The conditions noted are these: reference; Binding assay buffers not given in material; array DNA kept in 2 M NaCl, 10 mM TEA, 1 mM EDTA; reconstituted arrays dialysed into 1 mM MgCl2, 10 mM TEA pH 7.4.
The test system of data set [2] is histone octamer H3 K56Ac (smFRET). The data set is described as follows: single-molecule FRET. The conditions noted are these: DNA breathing increased by K56Ac; Binding assay buffers not given in material; array DNA kept in 2 M NaCl, 10 mM TEA, 1 mM EDTA; reconstituted arrays dialysed into 1 mM MgCl2, 10 mM TEA pH 7.4.

mononucleosome DNA for smFRET: in data set [1], the binding signal (fold DNA breathing (reference)) is 1. The substance also registered a binding signal (fold DNA breathing vs unacetylated) in data set [2] of 7.
